Measurements published in the DeepSol protein solubility set.

Assay: soluble on expression in E. coli; label from the status in PepcDB or PDB records

Sequence	soluble on expression in E. coli
MAHHHHHHMLRRVVAPAPVSATAACAGQARSIYEYKFGQTPLTQPFGGTSRLPPGPSSNPAPVAPGKVEITKLHNGARVITHNLGGPSVSVGAYILAGPAYDPPSAPGAGAMMHLALTTSNYNNSLFQLDRNIRSVGAAQSHFEKHKHYIGIRIDARADKWKSAASTSSFSQRRQLQNQKQAEQQFSLNLVQDNIFTCIAAPRFHEPDVERFRDTIDNQVEELRWQCPAEYAKQMLETVAFYREPLGNPRFVPAMSNSIISSSVLLEQYSRYIVPSRVVVAGVNVDHAALIAEYENTPFPHSASAPHHARAQPCVVNWKDEASQYTGGERHDHEDRPKVMGTKPDMDPESIIAVGWLAYGKDRKMVKDHAASMVVGALMDIGFSGCMRCGAPDEMHEHTGLRAFYNPYQTAGLIGFTAKAEPQAAVRMVTDAVKMVRASQASVADSMLSVAKKMAKTQFMVQTVDTIRDYCDYLGTCLAVDSDSTLATSVEEVVDAINSVNAADVKRVYEKMFSNKTSLYGHGEMLGFPSMRQMGL	not soluble
DADLATGAKVFSANCAACHAGGINLVNAEKTLKKEALEKFGMNSIVAITTQVTNGKAGMPAFKGRLTDDQIAAVAAYVLDQAEKGW	soluble
MDTQQIDVMVADASHEVYVDTILETIRNAAKVRGTGIAERTHEYVATKMKEGKAIIALCGDVFAGFTYIESWGNKQYVATSGLIVHPDFRGLGLAKRIKQASFQLARLRWPRAKIFSLTSGAAVMKMNTELGYVPVT	soluble
STKFPTLKRLFGEAQAAWLVKESEQAVLEIDAFCKQHHIDAQLSLKGVYYTATNHVQAGSMQPVVDELSRLGVNSWRRCKEDELHANTGSPRHLEGFHSSVAASVQPALLARGLRRVALEMGIEIFENTPMTKLDFGQPATVSTPDAQIKAKQVVLALNAWMVEHFTQFKNSIVVVSSDMVITKPLGESLRKTGWQAGTSVLDSRIFVHYYRDTPDGRLMLGKGGNQFSFNNQVDVMFNKPTRYQNLLRKSFDKLFPSLKEAEFEYSWTGGSDRSTSGFPFFGKLNEQRNVFYGFGYSGNGVAQTRMGGKILSSMVLGLDNEWTRSGLAKGPLGHFPPEPFRWIGAMTVRNAVRRKEEAEDCGQKPFIWDKWLAKLAGPAGKADKLD	not soluble
MGHHHHHHSHMAGGGAGDPGLGAAAAPAPETREHLFKVLVIGELGVGKTSIIKRYVHQLFSQHYRATIGVDFALKVLNWDSRTLVRLQLWDIAGQERFGNMTRVYYKEAVGAFVVFDISRSSTFEAVLKWKSDLDSKVHLPNGSPIPAVLLANKCDQNKDSSQSPSQVDQFCKEHGFAGWFETSAKDNINIEEAARFLVEKILVNHQSFPNEENDVDKIKLDQETLRAENKSQCC	soluble
MDADEGQDMSQVSGKESPPVSDTPDEGDEPMPIPEDLSTTSGGQQSSKSDRVVASNVKVETQSDEENGRACEMNGEECAEDLRMLDASGEKMNGSHRDQGSSALSGVGGIRLPNGKLKCDICGIICIGPNVLMVHKRSHTGERPFQCNQCGASFTQKGNLLRHIKLHSGEKPFKCHLCNYACRRRDALTGHLRTHSVIKEETNHSEMAEDLCKIGSERSLVLDRLASNVAKRKSSMPQKFLGDKGLSDTPYDSSASYEKENEMMKSHVMDQAINNAINYLGAESLRPLVQTPPGGSEVVPVISPMYQLHKPLAEGTPRSNHSAQDSAVENLLLLSKAKLVPSEREASPSNSCQDSTDTESNNEEQRSGLIYLTNHIAPHARNGLSLKEEHRAYDLLRAASENSQDALRVVSTSGEQMKVYKCEHCRVLFLDHVMYTIHMGCHGFRDPFECNMCGYHSQDRYEFSSHITRGEHRFHMS	not soluble
PLGSMPFHAEPLKPSDEIDMDLGHSVAAQKFKEIREVLEGNRYWARKVTSEEPEFMAEQVKGQAPNFLWIGCADSRVPEVTIMARKPGDVFVQRNVANQFKPEDDSSQALLNYAIMNVGVTHVMVVGHTGCGGCIAAFDQPLPTEENPGGTPLVRYLEPIIRLKHSLPEGSDVNDLIKENVKMAVKNVVNSPTIQGAWEQARKGEFREVFVHGWLYDLSTGNIVDLNVTQGPHPFVDDRVPRA	soluble
SRWQRDLTDSTVLRNMGVALGHTLLAYDSCLKGLGKLQADPARLSEDLQNAWEVLAEPIQTVMRRYGVANPYEQLKALTRGKTGIDRTTLQQFIEQLDIPAAERDRLLQLTPWGYI	not soluble
MAHHHHHHMGTLEAQTQGPGSMDNKKPKIITIASIKGGVGKSTSAIILATLLSKNNKVLLIDMDTQASITSYFYEKIEKLGINFTKFNIYEILKENVDIDSTIINVDNNLDLIPSYLTLHNFSEDKIEHKDFLLKTSLGTLYYKYDYIVIDTNPSLDVTLKNALLCSDYVIIPMTAEKWAVESLDLFNFFVRKLNLFLPIFLIITRFKKNRTHKTLFEILKTKDRFLGTISEREDLNRRIAENNNFDLNKDYIKEYENILEIFLKKI	soluble
MGSDKIHHHHHHMANTSSDWAGAPQNASADGEFVRDTNYIDDRIVADVPAGSEPIAQEDGTFHWPVEAGRYRLVAARACPWAHRTVITRRLLGLENVISLGLTGPTHDVRSWTFDLDPNHLDPVLQIPRLQDAYFNRFPDYPRGITVPALVEESSKKVVTNDYPSITIDFNLEWKQFHREGAPNLYPAELREEMAPVMKRIFTEVNNGVYRTGFAGSQEAHNEAYKRLWVALDWLEDRLSTRRYLMGDHITEADIRLYPTLVRFDAVYHGHFKCGRNKITEMPNLWGYLRDLFQTPGFGDTTDFTEIKQHYYITHAEINPTRIVPVGPDLSGFATPHGREKLGGSPFAEGVTLPGPIPAGEEVKNPEPFQK	not soluble
MGSDKIHHHHHHMFAKFVQRHGAARKAADKTIRAQAGALYAALKDPPGPPHAPASAEHREHQEQDAKEQTMYNDSKHGFDVAQTEYEAFMLEPHDWVPNNRKLPVVIYRRALMPASGDLAAAFEILFERNAWPPQWRDGIFDYHHFHATAHEILGVTDGSAQVIVGGPGGRVVTLCAGDALLLPAGTGHCLQSFARHFQVVAGYPEGQQWDIRREALTPDELASMEALPFPSLDPIDGKHGPLVEHWLHAA	not soluble
MMINQKNDIPLCAQEFSKLTDPLYIKKICLEKVHDWSRCNEDDVCVNQILSGLTNQLFEVSIKEDTAIEYRITRRHVLFRIYGKDVDALYNPLSEFEVYKTMSKYRIAPLLLNTFDGGRIEEWLYGDPLSIDDLKNKSILVGIANVLGKFHTLSRKRHLPEHWDKTPCVFKMMDRWRLAVSNYKNLDKVTLDINKYIQESHKFLKFIKIYTQIENIANDIVFCHNDLQENNIMNTNKCLRLIDFEYSGYNFLSADIANFFIETTIDYSYNAYPFFIINKKNYISYESRILFVTTYLSKYLDDSTAASDQDIIDQFLEAIEVQALGLHLIWAFWSIIRGYQTKSYNEFDFFLYAKERLKMYDEQKQYLMSKNIIKD	not soluble
MAHHHHHHMKVSFTLFFIIYIILNCDVLKCEVESSDSTSFLNLISGQSSSNSDDTVSSSDSRGVVASVSGTVDSDVSRTDSTGNVNSKNSELSETRQNSVEQNNNSNSSDNSIKIKSAFLKENVGVKITGPCDEGFGLVMVPHIIINVDTRNTDIQLGKKSSEINYGIKLRKKGKDEYEEKVGIDLLKNVCETGKNFKFVAYIKGDELIIKWKVIEEGNIPIDIKKFKIKRMSPPITSIQVFSSMSDEKSFVLENKNYVVTNNMPEKCEALATNCFLSGNIDIEKCYQCSLLVENDSKSDVCYNFISRENKEKLNEERFKVKGSTEYEESVESELKGAIDLLISSFYKSDGENGENVLISFEDLNSTLEDDIINFCSLLKLVDLSG	not soluble
MSLLFIFVVQSFAALSVEELTWDNGDTLLKFLQRNSIPMSLYYGLDREDQELASDIAYKIKYQVLKDENNNIEQVLIPISDDLQIHIYKDKDGQYTLAFTPVSYQKEDRILHLTIKSSAYQDVYEESGSSTLARAMVRAFRGSINFRNIQKGDEVTLYYEQKRRMGKLWGDINIKMAMVEINKSAREVFSYNDIFYDRDGKELESFLLTKPVNYTRISSPFTTARYHPILKRYRAHLGIDYAAPTGTPVKSAGKGVVTFIGTKGGYGNVIQIKHDSGYMTLYAHLSRFAKIKNGQKVNQGQVIAYVGSTGMSTGPHLHFGVYLNNKAINPASVVKIAKSELSGKAKENFKHIIAGYEQVVKEALASNQPNPPKEEDFENYIEGHHHHHH	soluble
MNKIIKYIGASAVVCMMAGCTTNFEDFNTNPYQPSKVPASNLLSTMFNVYACPQQNACQEINCMWASFSGQVTATANWSFGKNIFAYYNASEGHNDSSWGRLYGYIYPSFFLVENSTEKKGVIYAMAQLTRVYGMQLLASLQGPIPYTQMKAGETEAPYDNEQTVWHAMFDDLDNAITILKSAATFGVNQDLAVVDQFYKGDCSKWLKFANTLKLRMAIRISGVEPEYAQTKAQEAVLGGVMESVGDSSYDTTNGGINENGYAIVSGWPEVRANACLVSYMNGYNDPRRPAYFTPQTQTAAGGYVGVRSGSAEIPEPTVYANYSKLFIATDKTLPQPVMYAAEAAFLRAEGALKGWNMGGDAKTFYEKGVRLSFEEFGVSGADDYLADATSIPGNYVDNLIAGHTGNNYTNQSSITIKWEDGADDAKKLERVLTQKWIACYPDPMNGWADFRRTGYPRIFPATESMNADCNTGRGQRRLRFTRSEYNNNKANVEAAVSMLSNGKDSNGTDLWWAMKENGTY	not soluble
QDGGYSAREFMIFSSQPAEIADKIMKDLERGSTYINIEGAYKRTPGKAVYVVVDPSEVRQVREIIEEIDPKAFVSIRIVSEQLGEGFTYLRKKRSIFGR	not soluble
IVGGYNCKDGEVPWQALLINEENEGFCGGTILSEFYILTAAHCLYQAKRFKVRVGDRNTEQEEGGEAVHEVEVVIKHNRFTKETYDFDIAVLRLKTPITFRMNVAPASLPTAPPATGTKCLISGWGNTASSGADYPDELQCLDAPVLSQAKCEASYPGKITSNMFCVGFLEGGKDSCQGDSGGPVVCNGQLQGVVSWGDGCAQKNKPGVYTKVYNYVKWIKNTIAANS	soluble
SLSGNYLPRNTLVESLGHAMLKLSGWKIEGQLPALDKFVVIGAHHTSNWDFVAFLAAKFVLRLNARWFGKHTLFNGPLGGLMRRWGGIPIQRHLKLNTVDQAIQAFREHREFMLIIAPEGTRKKVDRWRMGFYHIARGAGVPVVPAALDYENRRIVIGEPFWPTGNEDADLCSLIGFYRPFIPKKPHYAFLGDEG	not soluble
MDEVDVALIGAGIMSATLGAMLRTLEPGWTQVMFERLDAPAQESSSPWNNAGTGHSALCELNYTPEVKGRVQIDKALGVNEKFQISRQFWSYQVNEGVLPSPREWINPVPHVSFGRGEDQVAYLKKRYEALAAHPLFPNMQYTDDRAKFAEMLPLMADGRSEFEKVAISWTDAGTDINYGSQTRQFLKAAEKNGTEIRYGHEVKDIKRDGAKWRVTVKNVHTGDTQVIRANFVFVGAGGMALPLLQKTGLEHHHHHH	soluble
MGSDKIHHHHHHMANVTPEIVKALFTGFGKNFKDGLAKAPSQYTAIATVIKSTTASNTYAWLGQMPKLTEWIGKRAITAIQSHGYAIVNKDWASGVEIKRTDIEDDNIGVYSPLVEELGRSAGEQPDELVFGALKGGFTTECYDKQYFFDTDHPVGANPDGTSPTSVSNITDDGTSVTADGAWYLLDCSRALKPLIFQQRKPATPAQMTDANAQKVFEDNVYTRCNVGYGFWQMAHAVKGKLNAENLWKAIKAMRAVHSDGGHKLGIKPTHIVVPTSLQEEAVKLLERELRVEDGAAVDNEFKNMKLTLIVADYL	not soluble
MKRLLLSAAILSSMALFNVNAQELKTSADMKGSFKKNVVLEVFTAEWCGYCPGGKERIAKAIEMLDDEYKERVFQTFVHYNDGISKKWPRVGQLFIALDQTLGIPGFPTFSVCRMEKKGENLSIGAPIAIKNKIMKGFGDGTAPAEVNLKLTKGATPEDVCTATFTGKVDADLIGKPLMLTAYVLKNNMKPINPQNGAGDGYLHQHTVLMILSTDVKGDALNIAADGSFTIKKEFKLDGFEIKDTDVLAFVHHPMSNAENHSIINAGQESLDKAEPTATEQIVATPSVKAYVQNGKIVVEEEYSKMEVFNATGQLVKNESLVPGVYVVRITANGVMYFLKVLVPMAGDPLEHHHHHH	soluble
